The target in one assay is rat GIPR (rat) (UniProt P43219). As to the kind of experiment: radioligand binding assay, 111In-labeled compound on CHO-VGT cells expressing rat GIPR, 6 h 37 °C; pKD category B = pKD between 9.0 and 9.5.
In the next assay the target is mouse GIPR (mouse) (UniProt Q0P543). As to the kind of experiment: radioligand binding assay, 111In-labeled compound on CHO-VGT cells expressing mouse GIPR, 6 h 37 °C; pKD category C = pKD < 9.0.
The target of another assay is dog GIPR (dog). As to the kind of experiment: radioligand binding assay, 111In-labeled compound on CHO-VGT cells expressing dog GIPR, 6 h 37 °C; pKD category A = pKD > 9.5.
Assay [1] deals with human gastric inhibitory polypeptide receptor (human GIPR) (human) (UniProt P48546). As to the kind of experiment: radioligand binding assay, 111In-labeled compound on CHO cells expressing GIPR, 6 h 37 °C; pKD category A = pKD > 9.5.
Assay [2] concerns the target human Gastric Inhibitory Peptide Receptor (GIPR) (human) (UniProt P48546). As to the kind of experiment: FACS competition vs biotinylated GIP-057 on CHO-K1-hGIPR cells; category B: pIC50 7.1-8.0.
Assay [3] deals with biotinylated extracellular domain of the human GIP receptor (bioGIPR) (human) (UniProt P48546). As to the kind of experiment: SPR single cycle kinetics, bioGIPR captured on chip; category C: t1/2 5-2.1 min.
The target is the same in assay [4]. As to the kind of experiment: SPR single cycle kinetics, bioGIPR captured on chip; category B: pKD 8.1-9.0.
For assay [5] the target is unchanged. As to the kind of experiment: SPR single cycle kinetics, bioGIPR captured on chip; category D: t1/2 <2.0 min.
Assay [6] addresses human Gastric Inhibitory Peptide Receptor (human) (UniProt P48546). As to the kind of experiment: FACS competition with GIP-057 on CHO-K1-hGIPR cells; pIC50 category B: 7.1-8.0.

*1 amine or outer side, *2 acyl side, *3 side chain or, on linkers, in order; H or OH if unused. Bridges are numbered along the chain shown (N, C = ends). Where no end group is shown, it is not given here. [ ]: non-standard residue; d: D form. The star is where a group is joined. Ttds = 1,13-diamino-4,7,10-trioxatridecan-succinamic acid, NCCCOCCOCCOCCCNC(=O)CCC(=O)*; dE(AGLU) = D-glutamic acid bearing 1-amino-1-deoxy-D-glucitol; Pro(trans-4-NH2) = O=C([C@@H]1C[C@@H](N[*:3])CN1[*:1])[*:2]; DOTA = O=C(O)CN1CCN(CC(=O)O)CCN(CC(=O)*)CCN(CC(=O)O)CC1; 2Lut = 2,6-lutidylidene bridge between two thiols; Trp(5-Cl) = N[C@@H](Cc1c[nH]c2ccc(Cl)cc12)C(=O)O; Pyridine(2,6-diCH2) = c1cc(C[*:1])nc(C[*:2])c1; APAc = 4-amino-1-carboxymethylpiperidine; Ethylenediamine = C(CN[*:2])N[*:1]; Glutaryl = O=C(CCCC(=O)[*:2])[*:1]; AGLU = 1-amino-1-deoxy-D-glucitol; Hyp = O=C(O)[C@@H]1C[C@@H](O)CN1; glu(AGLU) = not defined here; hSer = N[C@@H](CCO)C(=O)O; 3CbBn = 3-carboxybenzyl; Api = NC1(C(=O)O)CCNCC1; Aib = CC(C)(N)C(=O)O Some results are limits rather than exact numbers.

Chain of human Gastric Inhibitory Peptide Receptor (human) (P48546 22-466 limits assumed): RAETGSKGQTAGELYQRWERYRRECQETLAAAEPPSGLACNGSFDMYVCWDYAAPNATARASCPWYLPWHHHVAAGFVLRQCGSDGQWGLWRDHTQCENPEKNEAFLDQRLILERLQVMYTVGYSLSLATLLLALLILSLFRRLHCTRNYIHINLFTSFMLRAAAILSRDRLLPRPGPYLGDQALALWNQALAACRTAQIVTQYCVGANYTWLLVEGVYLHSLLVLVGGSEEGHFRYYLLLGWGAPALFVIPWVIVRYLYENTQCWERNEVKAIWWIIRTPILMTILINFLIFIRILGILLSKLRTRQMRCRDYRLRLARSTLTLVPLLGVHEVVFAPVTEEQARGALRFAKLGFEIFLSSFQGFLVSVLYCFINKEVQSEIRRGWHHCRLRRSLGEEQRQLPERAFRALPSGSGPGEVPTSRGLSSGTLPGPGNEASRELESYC
Chain of biotinylated extracellular domain of the human GIP receptor (bioGIPR) (human) (P48546 24-138 limits assumed): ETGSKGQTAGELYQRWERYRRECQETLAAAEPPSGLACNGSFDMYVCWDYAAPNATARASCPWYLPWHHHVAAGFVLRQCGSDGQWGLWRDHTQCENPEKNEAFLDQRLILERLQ
Chain of rat GIPR (rat) (P43219 19-455): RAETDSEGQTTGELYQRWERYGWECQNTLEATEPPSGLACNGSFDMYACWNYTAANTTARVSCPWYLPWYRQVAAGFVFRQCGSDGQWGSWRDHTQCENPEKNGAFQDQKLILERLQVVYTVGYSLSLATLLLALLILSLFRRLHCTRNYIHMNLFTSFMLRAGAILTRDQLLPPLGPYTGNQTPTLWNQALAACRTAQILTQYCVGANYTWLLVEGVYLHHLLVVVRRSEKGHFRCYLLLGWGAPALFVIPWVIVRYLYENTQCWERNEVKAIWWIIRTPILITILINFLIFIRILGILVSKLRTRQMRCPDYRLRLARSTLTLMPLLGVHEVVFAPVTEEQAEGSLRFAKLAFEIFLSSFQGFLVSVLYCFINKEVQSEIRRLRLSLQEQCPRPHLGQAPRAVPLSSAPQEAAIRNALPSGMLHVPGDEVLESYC
Chain of human gastric inhibitory polypeptide receptor (human GIPR) (human) (P48546 22-466 limits assumed): as the sequence (P48546 22-466 limits assumed) above
Chain of dog GIPR (dog) (chain, as listed by the source limits assumed, form in doubt): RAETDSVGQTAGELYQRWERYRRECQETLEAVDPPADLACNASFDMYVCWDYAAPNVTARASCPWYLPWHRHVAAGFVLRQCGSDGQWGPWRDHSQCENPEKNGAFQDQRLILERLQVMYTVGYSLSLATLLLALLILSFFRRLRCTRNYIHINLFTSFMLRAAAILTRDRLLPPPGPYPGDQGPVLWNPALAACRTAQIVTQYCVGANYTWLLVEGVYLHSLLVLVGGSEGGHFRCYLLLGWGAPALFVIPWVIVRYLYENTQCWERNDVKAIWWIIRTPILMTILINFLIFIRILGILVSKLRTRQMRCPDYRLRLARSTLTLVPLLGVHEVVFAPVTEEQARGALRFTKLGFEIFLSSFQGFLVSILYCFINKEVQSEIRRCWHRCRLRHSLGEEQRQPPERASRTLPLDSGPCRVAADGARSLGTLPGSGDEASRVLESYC
Chain of mouse GIPR (mouse) (Q0P543 19-460): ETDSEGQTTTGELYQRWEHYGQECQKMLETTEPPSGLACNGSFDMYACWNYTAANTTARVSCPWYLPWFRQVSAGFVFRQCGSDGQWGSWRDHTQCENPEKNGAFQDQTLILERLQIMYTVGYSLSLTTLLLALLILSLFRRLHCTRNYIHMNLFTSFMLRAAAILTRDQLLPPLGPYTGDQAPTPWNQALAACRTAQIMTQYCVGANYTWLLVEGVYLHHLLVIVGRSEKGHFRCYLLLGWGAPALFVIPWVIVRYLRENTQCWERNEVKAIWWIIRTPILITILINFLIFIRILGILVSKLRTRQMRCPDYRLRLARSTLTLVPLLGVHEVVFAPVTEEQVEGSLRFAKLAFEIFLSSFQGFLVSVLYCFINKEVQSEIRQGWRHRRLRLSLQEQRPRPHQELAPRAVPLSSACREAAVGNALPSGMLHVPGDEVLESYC

B1: 111In-labeled AGLU-Glutar-Asp-Trp-5Clw-Tap-Glu-leu-[Cys(2Lut)-Apc(DOTA)-Leu-Ile-Cys]-APAc-glu(AGLU)-NH2 (111In-GIP-001) (peptide)
peptide: {AGLU-Glutaryl}-DW[Trp(5-Cl)][Pro(trans-4-NH2)]E[dL]C[Api](DOTA)LIC-{APAc-dE(AGLU)-NH2}
modifications: linker 7-11 via Pyridine(2,6-diCH2); also: DOTA complexed with 111In
On to B1, for which the pKD with rat GIPR (rat) was 9 to 9.5 pkd; in the assay with mouse GIPR (mouse) it was under 9 pkd; with dog GIPR (dog) it was over 9.5 pkd; in assay [1] it was over 9.5 pkd.

B2: DOTA-Ttds-Asp-Trp-5Clw-Pro-Glu-leu-[Cys(3CbBn)-Aib-Leu-Ile-en] (peptide)
peptide: {DOTA-Ttds}-DW[Trp(5-Cl)]PE[dL]C[Aib]LI[Ethylenediamine]
modifications: bridge (positions not given here) via 3CbBn; not fully specified (bridges); printed as DOTA-Ttds-Asp-Trp-5Clw-Pro-Glu-leu-[Cys(3CbBn)-Aib-Leu-Ile-en]
For the molecule B2, the pIC50 in assay [2] fell in the range of 7.1 to 8 pic50. The same molecule had a t1/2 in assay [3] of 2.1 to 5 min. In [4], this molecule gave a pKD of 8.1 to 9 pkd.

B3: AGLU-Glutar-APAc-Hse-Trp-5Clw-Hyp-Glu-leu-[Cys(2Lut)-Apc(DOTA)-Leu-Ile-Cys]-APAc-glu(AGLU)-NH2 (peptide)
peptide: {AGLU-Glutaryl-APAc}-[hSer]W[Trp(5-Cl)][Hyp]E[dL]C[Api](DOTA)LIC-{APAc-dE(AGLU)-NH2}
modifications: linker 7-11 via Pyridine(2,6-diCH2)
The molecule B3 registered a t1/2 in [5] of under 2 min. This molecule returned a pIC50 in assay [6] of 7.1 to 8 pic50. The pKD in assay [4] lay within 8.1 to 9 pkd.

B4: AGLU-Glutar-APAc-Ser-Trp-5Clw-Tap(AGLU-Glutar)-Hse-leu-[Cys(2Lut)-Apc(DOTA)-Leu-Ile-Cys]-APAc-glu(AGLU)-NH2 (peptide)
peptide: SWXXXXCXLIC
modifications: AGLU-Glutar-APAc; 5Clw; Tap(AGLU-Glutar); Hse; D-leu; Apc(DOTA); 2Lut bridge Cys-Cys; APAc; D-glu(AGLU); C-term NH2
For B4, the t1/2 in [5] was under 2 min. In assay [6], this molecule returned a pIC50 of 7.1 to 8 pic50. In addition, the pKD in [4] lay within 8.1 to 9 pkd.

B5: AGLU-Glutar-APAc-Ser-Trp-5Clw-Tap-Hse-leu-[Cys(2Lut)-Apc(DOTA)-Leu-Ile-Cys]-APAc-glu(AGLU)-NH2 (peptide)
peptide: {AGLU-Glutaryl-APAc}-SW[Trp(5-Cl)][Pro(trans-4-NH2)][hSer][dL]C[Api](DOTA)LIC-{APAc-glu(AGLU)-NH2}
modifications: linker 7-11 via 2Lut; reading uncertain
B5 registered a t1/2 in assay [5] of under 2 min. Besides, the pIC50 in assay [6] lay within 7.1 to 8 pic50. In [4], the pKD was in the range of 8.1 to 9 pkd.

Source of the values: patent US20250296971A1, “GASTRIC INHIBITORY PEPTIDE RECEPTOR LIGANDS” (priority 2021, published 2025).
